According to patent US20220010008A1:
Several values for one entry are separate records, joined by “and”; a condition that tells them apart may be missing. Equal values may be shown once.

B1: 151G3B11 mouse-human chimeric antibody (antibody, human IgG4, V domains shown)
VH: EVHLQQSGAELVKPGASVKLSCTASGFNIKDYYMHWVKQRTEQGLEWIGRIDPEDGETKYAPKFQGQATITADTSSNTANLQLSSLTSEDTAVYYCARYGNFPDYWGPGTTLTVSS
VL: QIVLTQSPALMSASPGEKVTMTCSASSSVSYMYWYQQKPRSSPKPWIYLTSKLASGVPARFSGSGSGTSYSLTISSMEAEDAATYYCQQWNSNPYTFGGGTKLEIK
B2: 154F10G8 mouse-human chimeric antibody (antibody, human IgG4, V domains shown)
VH: QVQLQQPGAELVKPGASVKLSCKASGYTFTSYWITWVKQRPGQGLEWIGDIYPGSGSTFYNEKFKSEATLTVDTSSSTAYMQLSSLTSEDSAVFYCSTETTLGYWGQGTTLTVSS
VL: DVLMTQTPLSLPVSLGDQASISCRSSQSIVHNNGNTYLEWYLQKPGQSPKLLIYKVSNRFSGVPDRFSGSGSGTDFTLKISRVEAEDLGVYYCFQGSHVPFTFGSGTKLEIK

These binders were tested against recombinant human IL-5 protein (human) (UniProt P05113) (assay: cell-based or functional assay).

Q: For B1, which RLU, CTLL-2 proliferation with IL-5, Ab 0.000170667 nM is on record?
A: 47900 RLU and 63200 RLU

Q: What about the RLU, CTLL-2 proliferation with IL-5, Ab 0.000853333 nM of the same binder?
A: 54300 RLU and 63000 RLU

Q: What about the RLU, CTLL-2 proliferation with IL-5, Ab 0.004266667 nM of the same binder?
A: 51200 RLU and 58000 RLU

Q: What about the RLU, CTLL-2 proliferation with IL-5, Ab 0.02133333 nM of the same binder?
A: 41700 RLU and 43900 RLU

Q: And the RLU, CTLL-2 proliferation with IL-5, Ab 0.1066667 nM?
A: 10900 RLU and 10300 RLU

Q: And the RLU, CTLL-2 proliferation with IL-5, Ab 0.5333334 nM?
A: 8370 RLU and 8250 RLU

Q: And the RLU, CTLL-2 proliferation with IL-5, Ab 2.666667 nM?
A: 6580 RLU and 7940 RLU

Q: What about the RLU, CTLL-2 proliferation with IL-5, Ab 13.33333 nM of the same binder?
A: 5750 RLU and 5810 RLU

Q: And the RLU, CTLL-2 proliferation with IL-5, Ab 66.66666 nM?
A: 3690 RLU and 4030 RLU

Q: And the RLU, CTLL-2 proliferation with IL-5, Ab 3.41333E-05 nM?
A: 46800 RLU and 55000 RLU

Q: And the RLU, TF-1 proliferation with IL-5, Ab 0.00001 nM?
A: 95500 RLU and 93900 RLU

Q: What about the RLU, TF-1 proliferation with IL-5, Ab 0.00003 nM of the same binder?
A: 89800 RLU and 92600 RLU

Q: What about the RLU, TF-1 proliferation with IL-5, Ab 0.00017 nM of the same binder?
A: 76600 RLU and 80400 RLU

Q: And the RLU, TF-1 proliferation with IL-5, Ab 0.00085 nM?
A: 66300 RLU and 74200 RLU

Q: And the RLU, TF-1 proliferation with IL-5, Ab 0.00427 nM?
A: 41500 RLU and 46000 RLU

Q: And the RLU, TF-1 proliferation with IL-5, Ab 0.02133 nM?
A: 38600 RLU and 44100 RLU

Q: What about the RLU, TF-1 proliferation with IL-5, Ab 0.10667 nM of the same binder?
A: 41600 RLU and 38800 RLU

Q: And the RLU, TF-1 proliferation with IL-5, Ab 0.53333 nM?
A: 36400 RLU and 36800 RLU

Q: And the RLU, TF-1 proliferation with IL-5, Ab 2.66667 nM?
A: 38400 RLU and 36800 RLU

Q: And the RLU, TF-1 proliferation with IL-5, Ab 13.33333 nM?
A: 36200 RLU and 33500 RLU

Q: How did the RLU, CTLL-2 proliferation with IL-5, Ab 0.000170667 nM turn out when B2 was run?
A: 59900 RLU and 54900 RLU

Q: And the RLU, CTLL-2 proliferation with IL-5, Ab 0.000853333 nM?
A: 59800 RLU and 56700 RLU

Q: What about the RLU, CTLL-2 proliferation with IL-5, Ab 0.004266667 nM of the same binder?
A: 64400 RLU and 61300 RLU

Q: What about the RLU, CTLL-2 proliferation with IL-5, Ab 0.02133333 nM of the same binder?
A: 62100 RLU and 59300 RLU

Q: What about the RLU, CTLL-2 proliferation with IL-5, Ab 0.1066667 nM of the same binder?
A: 54800 RLU and 52000 RLU

Q: What about the RLU, CTLL-2 proliferation with IL-5, Ab 0.5333334 nM of the same binder?
A: 44900 RLU and 38200 RLU

Q: What about the RLU, CTLL-2 proliferation with IL-5, Ab 2.666667 nM of the same binder?
A: 28000 RLU and 25400 RLU

Q: What about the RLU, CTLL-2 proliferation with IL-5, Ab 13.33333 nM of the same binder?
A: 16200 RLU and 17000 RLU

Q: And the RLU, CTLL-2 proliferation with IL-5, Ab 66.66666 nM?
A: 12200 RLU and 12400 RLU

Q: And the RLU, CTLL-2 proliferation with IL-5, Ab 3.41333E-05 nM?
A: 60700 RLU and 50200 RLU

Q: What about the RLU, TF-1 proliferation with IL-5, Ab 0.00001 nM of the same binder?
A: 110000 RLU and 113000 RLU

Q: What about the RLU, TF-1 proliferation with IL-5, Ab 0.00003 nM of the same binder?
A: 111000 RLU and 109000 RLU

Q: What about the RLU, TF-1 proliferation with IL-5, Ab 0.00017 nM of the same binder?
A: 111000 RLU

Q: And the RLU, TF-1 proliferation with IL-5, Ab 0.00085 nM?
A: 109000 RLU and 108000 RLU

Q: What about the RLU, TF-1 proliferation with IL-5, Ab 0.00427 nM of the same binder?
A: 109000 RLU and 114000 RLU

Q: What about the RLU, TF-1 proliferation with IL-5, Ab 0.02133 nM of the same binder?
A: 99100 RLU and 101000 RLU

Q: And the RLU, TF-1 proliferation with IL-5, Ab 0.10667 nM?
A: 81400 RLU and 82800 RLU

Q: And the RLU, TF-1 proliferation with IL-5, Ab 0.53333 nM?
A: 60400 RLU and 56800 RLU

Q: And the RLU, TF-1 proliferation with IL-5, Ab 2.66667 nM?
A: 45200 RLU and 42600 RLU

Q: What about the RLU, TF-1 proliferation with IL-5, Ab 13.33333 nM of the same binder?
A: 38500 RLU and 40000 RLU

Each binder was assayed against recombinant human IL-5 protein (human) (UniProt P05113) (assay: ELISA, biotin-human IL-5 on streptavidin plate, Ab 0.0002 nM).

Q: With B1 as the binder, how does the OD450 nm read?
A: 0.098 OD450 nm and 0.127 OD450 nm

Q: How did the OD450 nm turn out when B2 was run?
A: 0.083 OD450 nm and 0.098 OD450 nm

The binders below were run against recombinant human IL-5 protein (human) (UniProt P05113) (assay: ELISA, biotin-human IL-5 on streptavidin plate, Ab 0.0009 nM).

Q: For B1, which OD450 nm is on record?
A: 0.127 OD450 nm and 0.114 OD450 nm

Q: With B2 as the binder, how does the OD450 nm read?
A: 0.081 OD450 nm and 0.087 OD450 nm

The binders below were run against recombinant human IL-5 protein (human) (UniProt P05113) (assay: ELISA, biotin-human IL-5 on streptavidin plate, Ab 0.0043 nM).

Q: For B1, which OD450 nm is on record?
A: 0.194 OD450 nm and 0.244 OD450 nm

Q: Which OD450 nm does the source give for B2 here?
A: 0.108 OD450 nm and 0.106 OD450 nm

What follows are binders tested against recombinant human IL-5 protein (human) (UniProt P05113) (assay: ELISA, biotin-human IL-5 on streptavidin plate, Ab 0.0213 nM).

Q: For B1, which OD450 nm is on record?
A: 0.622 OD450 nm and 0.678 OD450 nm

Q: With B2 as the binder, how does the OD450 nm read?
A: 0.224 OD450 nm and 0.221 OD450 nm

These binders were tested against recombinant human IL-5 protein (human) (UniProt P05113) (assay: ELISA, biotin-human IL-5 on streptavidin plate, Ab 0.1067 nM).

Q: Which OD450 nm does the source give for B1 here?
A: 1.87 OD450 nm and 1.92 OD450 nm

Q: How did the OD450 nm turn out when B2 was run?
A: 0.716 OD450 nm and 0.77 OD450 nm

What follows are binders tested against recombinant human IL-5 protein (human) (UniProt P05113) (assay: ELISA, biotin-human IL-5 on streptavidin plate, Ab 0.5333 nM).

Q: For B1, which OD450 nm is on record?
A: 3.03 OD450 nm and 2.93 OD450 nm

Q: For B2, which OD450 nm is on record?
A: 1.93 OD450 nm and 2 OD450 nm

The binders below were run against recombinant human IL-5 protein (human) (UniProt P05113) (assay: ELISA, biotin-human IL-5 on streptavidin plate, Ab 2.6667 nM).

Q: B1 was tested. Which OD450 nm did it give?
A: 3.47 OD450 nm and 3.5 OD450 nm

Q: B2 was tested. Which OD450 nm did it give?
A: 2.96 OD450 nm and 3.01 OD450 nm

Each binder was assayed against recombinant human IL-5 protein (human) (UniProt P05113) (assay: ELISA, biotin-human IL-5 on streptavidin plate, Ab 13.3333 nM).

Q: How did the OD450 nm turn out when B1 was run?
A: 3.7 OD450 nm and 3.52 OD450 nm

Q: With B2 as the binder, how does the OD450 nm read?
A: 3.7 OD450 nm and 3.71 OD450 nm

What follows are binders tested against recombinant human IL-5 protein (human) (UniProt P05113) (assay: FACS blocking: biotin-IL-5 bound to CHOK1 IL-5Ra/CSF2RB cells, Ab 0.0004 nM).

Q: B1 was tested. Which Fluorescence intensity did it give?
A: 95 MFI

Q: B2 was tested. Which Fluorescence intensity did it give?
A: 91 MFI

Each binder was assayed against recombinant human IL-5 protein (human) (UniProt P05113) (assay: FACS blocking: biotin-IL-5 bound to CHOK1 IL-5Ra/CSF2RB cells, Ab 0.0021 nM).

Q: With B1 as the binder, how does the Fluorescence intensity read?
A: 90 MFI

Q: How did the Fluorescence intensity turn out when B2 was run?
A: 88 MFI

The binders below were run against recombinant human IL-5 protein (human) (UniProt P05113) (assay: FACS blocking: biotin-IL-5 bound to CHOK1 IL-5Ra/CSF2RB cells, Ab 0.0107 nM).

Q: For B1, which Fluorescence intensity is on record?
A: 85 MFI

Q: B2 was tested. Which Fluorescence intensity did it give?
A: 88 MFI

Each binder was assayed against recombinant human IL-5 protein (human) (UniProt P05113) (assay: FACS blocking: biotin-IL-5 bound to CHOK1 IL-5Ra/CSF2RB cells, Ab 0.0533 nM).

Q: B1 was tested. Which Fluorescence intensity did it give?
A: 82 MFI

Q: B2 was tested. Which Fluorescence intensity did it give?
A: 87 MFI

The binders below were run against recombinant human IL-5 protein (human) (UniProt P05113) (assay: FACS blocking: biotin-IL-5 bound to CHOK1 IL-5Ra/CSF2RB cells, Ab 0.2667 nM).

Q: With B1 as the binder, how does the Fluorescence intensity read?
A: 68 MFI

Q: With B2 as the binder, how does the Fluorescence intensity read?
A: 67 MFI

These binders were tested against recombinant human IL-5 protein (human) (UniProt P05113) (assay: FACS blocking: biotin-IL-5 bound to CHOK1 IL-5Ra/CSF2RB cells, Ab 1.3333 nM).

Q: With B1 as the binder, how does the Fluorescence intensity read?
A: 41 MFI

Q: B2 was tested. Which Fluorescence intensity did it give?
A: 46 MFI

Each binder was assayed against recombinant human IL-5 protein (human) (UniProt P05113) (assay: FACS blocking: biotin-IL-5 bound to CHOK1 IL-5Ra/CSF2RB cells, Ab 6.6667 nM).

Q: Which Fluorescence intensity does the source give for B1 here?
A: 33 MFI

Q: How did the Fluorescence intensity turn out when B2 was run?
A: 39 MFI

What follows are binders tested against recombinant human IL-5 protein (human) (UniProt P05113) (assay: FACS blocking: biotin-IL-5 bound to CHOK1 IL-5Ra/CSF2RB cells, Ab 33.3333 nM).

Q: B1 was tested. Which Fluorescence intensity did it give?
A: 28 MFI

Q: B2 was tested. Which Fluorescence intensity did it give?
A: 35 MFI

These binders were tested against recombinant human IL-5 protein (human) (UniProt P05113) (assay: SPR, human IL-5 immobilized on CM5 chip, chimeric antibody as analyte, 1:1 global fit).

Q: What does the source list for B1?
A: Kd: < 0.0637 nM; koff: < 1e-05 s⁻¹; kon: 157000 M⁻¹ s⁻¹

Q: Which results are given for B2?
A: Kd: 0.188 nM; koff: 5.24e-05 s⁻¹; kon: 279000 M⁻¹ s⁻¹
